Experiments:
[1] = target: human FcγRIIb, His6-tagged (human) (UniProt P31994); test: SPR, steady state
[2] = target: human FcγRI, His6-tagged (human) (UniProt P12314); test: SPR, 1:1 kinetic
human FcγRI, His6-tagged (human), sequence (P12314 16-288 limits assumed): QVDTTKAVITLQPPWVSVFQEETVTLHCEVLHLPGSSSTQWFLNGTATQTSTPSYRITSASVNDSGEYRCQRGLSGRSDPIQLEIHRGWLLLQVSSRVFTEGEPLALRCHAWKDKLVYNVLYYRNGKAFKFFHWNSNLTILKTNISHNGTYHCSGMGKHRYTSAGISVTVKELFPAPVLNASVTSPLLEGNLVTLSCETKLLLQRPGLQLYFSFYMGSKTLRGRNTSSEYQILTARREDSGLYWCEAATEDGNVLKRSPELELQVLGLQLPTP

human FcγRIIb, His6-tagged (human), sequence (P31994 43-217 limits assumed): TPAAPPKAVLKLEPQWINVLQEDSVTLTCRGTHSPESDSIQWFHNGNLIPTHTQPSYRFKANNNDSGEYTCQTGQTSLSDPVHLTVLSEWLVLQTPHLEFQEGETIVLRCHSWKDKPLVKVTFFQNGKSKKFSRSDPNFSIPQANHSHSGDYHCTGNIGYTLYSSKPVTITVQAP

Kd [1]: 23.1 µM
Kd [2]: 0.00925 µM
Substance: isotype control human IgG4 (antibody)

From patent US20230212285A1
